What was measured:
[1] = target: T1, hemagglutinin (HA) of A/Netherlands/602/2009 (pH1N1), on virions (Influenza A virus …, UniProt C3PSV2); assay: flow cytometry on cells; details: partners not purified
T1 construct: also called A/Netherlands/602/09; A/Neth/09

[2] = target: T2, HA-hFc probe: H1N1 A/California/04/2009 HA ectodomain fused to human IgG1 Fc (Influenza A virus A/California/04/2009 …, UniProt C3W5S1); assay: flow cytometry on cells; details: one partner purified
T2 construct: also called HA-probe; HA-human Fc probe; source: High Five insect cells (recombinant baculovirus), purified (HiTrap Protein G); not shown: Fc (human IgG1), C-terminal, kept

B1: fTfR-5J8 chimeric antibody-based receptor, stably expressed on A549 Slc35A1 KO cells (scFv, V domains shown)
VH: EVQLVESGPGLVKPSDILSLTCAVSGYSISSNYYWGWIRQPPGKGLEWIGSIYHSGSTYYKPSLESRLGISVDTSKNQFSLKLSFVSAADTAVYYCARHVRSGYPDTAYYFDKWGQGTLVTVSS
VL: SYVLTQPPSVSVAPGETARISCGGNNIGTKVLHWYQQTPGQAPVLVVYDDSDRPSGIPERFSGSNSGNTATLTISRVEVGDEADYYCQVWDISTDQAVFGGGTKLTVL
notes: also called LV-fTfR-5J8; LV-5J8-TfR
binding result [1]: binds

B2: Flag-tagged fTfR-5J8 receptor, WT (Flag+) (scFv, V domains shown)
VH: B1 VH
VL: B1 VL
notes: also called WT receptor
binding result [2]: binds

— article PMC12090727, “Cell binding, uptake, and infection of influenza A virus using recombinant antibody-based receptors” (Journal of Virology, 2025)
